We go through 2 molecules from publication PMC10179326.

The target in the series is alpha-thrombin (Homo sapiens, UniProt P00734;P00734 328-363;364-622). Kind of series: MST; potassium phosphate pH 7.5, 20 nM aptamer; EMSA: 10 mM sodium cacodylate pH 7.2, 100 mM KCl in D2O, incubation 25 C, 12% native gel in 1x TBE + 10 mM KCl at 10 C; MST: 10 mM Tris-HCl, 100 mM potassium ph.

B1: 2GLE (analogue 2 - GLE tripeptide conjugate) (structured_DNA)
DNA: GGGTTGGGTGTGGGTTGGG
modifications: alpha-deoxyguanosine at positions 1,12; tripeptide GLE conjugated at T4 (N3 position, equivalent of T3 in TBA)
Regarding B1, the dissociation constant Kd is 2.7 nM.

GGTTGGTGTGGTTGG (structured_DNA) [TBA (15-mer thrombin binding aptamer)]: the Kd came out at 19.5 nM.

For orientation: Kd means the free concentration of one partner at which half of the binding sites on the other are occupied at equilibrium, for simple one-to-one binding.
